test: label from the status in PepcDB records
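Note: failed if final PepcDB status was selected cloned or expressed and not failed if soluble or beyond.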

| Sequence | protein production |
| --- | --- |
| MTEDTADSGTGGRGPTRRHLVRRALALGGALAVAPFPAGPAKAVPPPRHPHRTLRHGSPERAGLLPDHLRGLVTDAESFLGPSPTHPWYAGAVLLAGRGDTVALHQPIGTAVRYSAYDAKTDTGVEFPAERQIPMATDTVFDLASVSKLFTSLLAVQQLERGALELEARVASYLPDFAGAGKQDVTIRQLLTHTSGFRAWLPLYKAPSRAEKLRLIWNEAPLSPPGTKYLYSDLNLISLQLVLEEITGHPLDALLRDEITAPLGLRSTRYNPPAAWKPRIAATEDARPPWSGLDRGLVWGEVHDENAFGFGGVAGHAGVFSCAWDLAVLGRTLLNGGTYGHTRILAPESVELLFTDFNTAFPGDEHGLGFELYQHWYMGAMATPRTAGHTGFTGTSLVLDPTTDSFLIVLGNSVHPVRTWRSGSAPRAAAGNHLARAVQVRPARGRTSWFSGMATAASATLTLPELDTAGTADTAETTGTADSTTADSGGRLRCALWWDTEPRSDTLFLEASADDGASWQPVPFTTACDGEEAREHPTGSVTGWSGRVWHRLHADLPRARRLTLRWRYTTDRLYVGRGAYVDAVRVESGGRVLFDEARPTDAARIEAAGWTPSEN | failed |
| MTEHRPAIELEEIPTLLERIEGYKGRSRLTQLAIKLNLLIFIRSSELRFARWSEIDFKSGLWVIPEQREAIKGIKHSDRGAKMRRKHYVPLCEQALVILGELKDLTYDVNGDDGFILTGCYDAMKPMSENTINKALRKMGYDTKTDLCGHGFRTLACSALIESGIWPEDVVELQMSHMEKNNVRAAYTHKAKHLEQRRLMLQWWADFLDANGSGMVRPFEFAQGATQYLEHHHHHH | failed |
| MTEIKYKVITKDAFALPYTIIKAKNQPTKGVIVYIHGGGLMFGKANDLSPQYIDILTEHYDLIQLSYRLLPEVSLDCIIEDVYASFDAIQSQYSNCPIFTFGRSSGAYLSLLIARDRDIDGVIDFYGYSRINTEPFKTTNSYYAKIAQSINETMIAQLTSPTPVVQDQIAQRFLIYVYARGTGKWINMINIADYTDSKYNIAPDELKTLPPVFIAHCNGDYDVPVEESEHIMNHVPHSTFERVNKNEHDFDRRPNDEAITIYRKVVDFLNAITMV | not failed |
| MTEINLLQPMHASTKRDYVQRVVEHDKAESAAVARQWGRDYWDGDRRYGYGGYRYDGRWRPLAQTLIDRYGIKPGMSVLDVGCGKGYLLYEFTQLVPDLTIAGIDVSEYGIANAKEDVRPQLRVGSAVELPYPDHSFDLVVSLGVLHNLPLEDVFRAVSEIERVGRGASKYLMVESFRNEREKANLLYWQLTCLSFHGPDTWAWIYDKCGYRGDHGFIFFE | failed |
| MTEKHLIWDLPLRIFHWGFAATILAAWYTAEQGADLVEIHMQLGFVALALIAFRILWGLIGPKHARFSQFVPSPKSLLSYLRSPNTAKSTAGHNPLGALMVILMILLISAQAISGLFINDDVFSSGPYYGRISNELEKVMKFLHHNTFDFMIAAIVLHIAAITFYWRVKKENLVLPMITGKKTTAQVKSSDAIPHSKIILGCIVAVCCVIFVYWLVVVNAPVIEEFYY | failed |
| MTELVTFGETMLRLSPPGDERLETADQYAVRAAGAESNVAVAAQRLGVDAMWASKLPDSPVGRRVTGELKHHGVSVDVAWDDSDSARQGTYYLEQGSPPRGNDVIYDRQNASVTTATPAELPTEAIADAAGFHTSGITPALSETLESTTADLLSLAQDAGTTTSFDLNYRSKLWTPAEARSVLTELFPSVDLLVVAERDANVVLDRTGDAETIARDLAAEYGFEATVITRGSDGALALADGTVTEQPTFESTDAHPVGTGDSFVGGFLSQYLSGGTVADGLAWGAATAALKRTIPGDIAVVSPDEIRSILSGDTEAISR | failed |
| MTENEFLSQEEIDKLLSDSDTGGVLTPEEKDMIGEIGNIAMGSAATTLSMILGRDIHITVPTVREEKMKNVKSDFSGEQVVVSVEYTEGLEGLNVLVLDKKLVAVIADLMMGGSGEVETEELDEIKLSAVGEAMNQMMGSAATSLSELLGITINISPPKVEI | not failed |
| MTENVVCTGAVNAVKEVWEKRIKKLNEDLKREKEFQHKLVRIWEERVSLTKLREKVTREDGRVILKIEKEEWKTLPSSLLKLNQLQEWQLHRTGLLKIPEFIGRFQNLIVLDLSRNTISEIPPGIGLLTRLQELILSYNKIKTVPKELSNCASLEKLELAVNRDICDLPQELSNLLKLTHLDLSMNDFTTIPLAVLNMPALEWLDMGSNKLEQLPDTIERMQNLHTLWLQRNEITCLPQTISNMKNLGTLVLSNNKLQDIPVCMEEMANLRFVNFRDNPLKLKVSLPPSEGTDEEEERELFGLQFMHTYIQESRRRADHQVNGSTTLPISINTDG | not failed |
